Positions count from the first letter of the chain named.
Legend:
Assay in all cases: MST; YFP-fused partner constant at 100 nM, non-fluorescent protein titrated (16 two-fold dilutions); 20 mM Hepes pH 7.0, 100 mM NaCl, 1 mM EGTA, 0.5 mM TCEP, 0.05% Tween 20; Monolith NT.115
Conditions in all cases: both partners purified
[1] = molecular target: T1, Myo7a MF2 G1982E (deafness mutant) (human, UniProt Q13402-1 1702-2215, G1982E)
T1 construct: Myosin 7a, human, MF2, residues 1702-2215 of UniProt Q13402-1, with a deafness missense mutation; source: E. coli, purified similarly as wild type (Histrap, CaptoQ, gel filtration)
T1 sequence (looked up): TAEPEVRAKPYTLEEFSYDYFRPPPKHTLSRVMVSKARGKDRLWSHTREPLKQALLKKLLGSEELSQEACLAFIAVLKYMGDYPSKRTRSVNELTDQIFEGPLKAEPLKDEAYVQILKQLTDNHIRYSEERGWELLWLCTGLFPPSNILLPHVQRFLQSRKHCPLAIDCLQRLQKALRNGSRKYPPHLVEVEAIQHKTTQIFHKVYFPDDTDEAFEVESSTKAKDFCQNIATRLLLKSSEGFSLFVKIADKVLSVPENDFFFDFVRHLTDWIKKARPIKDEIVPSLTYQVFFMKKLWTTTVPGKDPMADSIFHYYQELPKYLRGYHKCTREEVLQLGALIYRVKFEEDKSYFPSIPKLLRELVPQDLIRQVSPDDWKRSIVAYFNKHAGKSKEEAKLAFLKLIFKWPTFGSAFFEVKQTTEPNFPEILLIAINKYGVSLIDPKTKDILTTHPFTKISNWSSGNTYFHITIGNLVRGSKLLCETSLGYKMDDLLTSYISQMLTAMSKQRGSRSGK

[2] = molecular target: T2, Myo7a MF2 K2118N (deafness mutant) (human, UniProt Q13402-1 1702-2215, K2118N)
T2 construct: Myosin 7a, human, MF2, residues 1702-2215 of UniProt Q13402-1, with a deafness missense mutation; source: E. coli, purified similarly as wild type (Histrap, CaptoQ, gel filtration)
T2 sequence (looked up): T1 sequence (looked up) with E281G, K417N

[3] = molecular target: T3, Myo7a MF2 G2163S (deafness mutant) (human, UniProt Q13402-1 1702-2215, G2163S)
T3 construct: Myosin 7a, human, MF2, residues 1702-2215 of UniProt Q13402-1, with a deafness missense mutation; source: E. coli, purified similarly as wild type (Histrap, CaptoQ, gel filtration)
T3 sequence (looked up): T1 sequence (looked up) with E281G, G462S

[4] = molecular target: T4, Myo7a MF2 G1982R (deafness mutant) (human, UniProt Q13402-1 1702-2215, G1982R)
T4 construct: Myosin 7a, human, MF2, residues 1702-2215 of UniProt Q13402-1, with a deafness missense mutation; source: E. coli, purified similarly as wild type (Histrap, CaptoQ, gel filtration)
T4 sequence (looked up): T1 sequence (looked up) with E281R

Measured: Kd

B1: YFP-Harmonin-a PDZ3c (domain or fragment, human, UniProt Q9Y6N9-1 428-552, looked up)
chain: QDFRKYEEGFDPYSMFTPEQIMGKDVRLLRIKKEGSLDLALEGGVDSPIGKVVVSAVYERGAAERHGGIVKGDEIMAINGKIVTDYTLAEAEAALQKAWNQGGDWIDLVVAVCPPKEYDDELTFF
notes: Harmonin-a1 (USH1C), human, residues 428-552 of UniProt Q9Y6N9-1; also called ^YFPPDZ3c (isoA); source: E. coli BL21 (DE3) Rosetta, purified (Glutathione Sepharose 4B, size-exclusion chromatography)
> 60 µM: all assays above

— article PMC5493754, “Myosin 7 and its adaptors link cadherins to actin” (Nature Communications, 2017)
